Numbered stars: 1 amine (or outer) side, 2 acyl side, 3 side chain; on linkers, the order of the positions; unused ones are H or OH. Bridge positions count the residues as written; N and C are the ends. Side chains are listed from the residue outwards. Ends that are not written are not given here. * marks the point of attachment. C20 diacid = O=C(O)CCCCCCCCCCCCCCCCCCC(=O)*; γGlu = O=C(O)[C@H](CCC(=O)[*:2])N[*:1]; AEEA = NCCOCCOCC(=O)O
T1: human amylin receptor (amylin 3(a) receptor: human calcitonin receptor co-expressed with RAMP-3) (human, UniProt P30988 25-474; O60896 24-148, limits assumed)
T1 sequence (looked up) 1: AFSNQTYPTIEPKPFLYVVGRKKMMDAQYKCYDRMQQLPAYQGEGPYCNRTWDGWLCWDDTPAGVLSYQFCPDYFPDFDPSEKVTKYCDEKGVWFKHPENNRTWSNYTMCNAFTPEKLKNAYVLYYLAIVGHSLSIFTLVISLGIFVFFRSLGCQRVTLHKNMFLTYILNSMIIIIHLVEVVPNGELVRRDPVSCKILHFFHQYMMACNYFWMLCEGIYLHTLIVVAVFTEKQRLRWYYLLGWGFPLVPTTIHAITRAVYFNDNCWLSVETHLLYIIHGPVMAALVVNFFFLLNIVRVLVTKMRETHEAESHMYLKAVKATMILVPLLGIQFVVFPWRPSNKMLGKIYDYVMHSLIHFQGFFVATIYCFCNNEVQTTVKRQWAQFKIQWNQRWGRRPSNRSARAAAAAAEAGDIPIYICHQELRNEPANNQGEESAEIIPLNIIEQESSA
T1 sequence (looked up) 2: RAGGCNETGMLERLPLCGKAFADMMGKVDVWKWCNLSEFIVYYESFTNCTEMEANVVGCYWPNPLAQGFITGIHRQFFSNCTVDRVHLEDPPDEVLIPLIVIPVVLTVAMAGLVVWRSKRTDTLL

T2: human calcitonin receptor (human, UniProt P30988 25-474)
T2 sequence (looked up): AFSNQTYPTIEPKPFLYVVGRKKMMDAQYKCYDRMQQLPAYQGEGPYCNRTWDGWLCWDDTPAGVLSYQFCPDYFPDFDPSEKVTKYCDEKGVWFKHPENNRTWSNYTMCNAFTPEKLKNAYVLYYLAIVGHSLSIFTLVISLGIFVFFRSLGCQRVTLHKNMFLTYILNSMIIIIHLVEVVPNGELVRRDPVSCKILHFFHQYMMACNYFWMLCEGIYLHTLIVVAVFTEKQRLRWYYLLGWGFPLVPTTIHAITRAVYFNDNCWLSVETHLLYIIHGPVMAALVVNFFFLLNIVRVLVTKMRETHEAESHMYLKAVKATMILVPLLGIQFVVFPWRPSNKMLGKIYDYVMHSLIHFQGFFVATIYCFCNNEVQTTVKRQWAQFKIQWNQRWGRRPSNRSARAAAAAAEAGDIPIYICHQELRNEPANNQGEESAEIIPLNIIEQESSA


What was measured:
[1] = target: T1, human amylin receptor (amylin 3(a) …); experiment: cell-based or functional assay
[2] = target: T2, human calcitonin receptor; experiment: cell-based or functional assay

Binder	Ratio hCT/hAmylin funct. [1]	hAmylin-R funct. EC50 [1]	hCTR funct. EC50 [2]
K([AEEA-C20 diacid])CNTATCATQRLANFLRHSSPNFGAIPSSTNVGHNTY-NH2 (disulfide 2-7; N-terminus assumed; SMILES CC[C@H](C)[C@H](NC(=O)[C@H](C)NC(=O)CNC(=O)[C@H](Cc1ccccc1)NC(=O)[C@H](CC(N)=O)NC(=O)[C@@H]1CCCN1C(=O)[C@H](CO)NC(=O)[C@H](CO)NC(=O)[C@H](Cc1c[nH]cn1)NC(=O)[C@H](CCCNC(=N)N)NC(=O)[C@H](CC(C)C)NC(=O)[C@H](Cc1ccccc1)NC(=O)[C@H](CC(N)=O)NC(=O)[C@H](C)NC(=O)[C@H](CC(C)C)NC(=O)[C@H](CCCNC(=N)N)NC(=O)[C@H](CCC(N)=O)NC(=O)[C@@H](NC(=O)[C@H](C)NC(=O)[C@@H]1CSSC[C@H](NC(=O)[C@@H](N)CCCCNC(=O)COCCOCCNC(=O)CCCCCCCCCCCCCCCCCCC(=O)O)C(=O)N[C@@H](CC(N)=O)C(=O)N[C@@H]([C@@H](C)O)C(=O)N[C@@H](C)C(=O)N[C@@H]([C@@H](C)O)C(=O)N1)[C@@H](C)O)C(=O)N1CCC[C@H]1C(=O)N[C@@H](CO)C(=O)N[C@@H](CO)C(=O)N[C@H](C(=O)N[C@@H](CC(N)=O)C(=O)N[C@H](C(=O)NCC(=O)N[C@@H](Cc1c[nH]cn1)C(=O)N[C@@H](CC(N)=O)C(=O)N[C@H](C(=O)N[C@@H](Cc1ccc(O)cc1)C(N)=O)[C@@H](C)O)C(C)C)[C@@H](C)O, also called compound 91) [N^ε1-[2-[2-[2-(19-carboxynonadecanoylamino)ethoxy]ethoxy]acetyl]-[Arg17,Pro21,Pro27,His34]-h-amylin]	36.9	0.04 nM	1.48 nM
K([AEEA-AEEA-γGlu-C20 diacid])CNTATCATQRLANFLRHSSPNFGAIPSSTNVGRNTY-NH2 (disulfide 2-7; N-terminus assumed; SMILES CC[C@H](C)[C@H](NC(=O)[C@H](C)NC(=O)CNC(=O)[C@H](Cc1ccccc1)NC(=O)[C@H](CC(N)=O)NC(=O)[C@@H]1CCCN1C(=O)[C@H](CO)NC(=O)[C@H](CO)NC(=O)[C@H](Cc1c[nH]cn1)NC(=O)[C@H](CCCNC(=N)N)NC(=O)[C@H](CC(C)C)NC(=O)[C@H](Cc1ccccc1)NC(=O)[C@H](CC(N)=O)NC(=O)[C@H](C)NC(=O)[C@H](CC(C)C)NC(=O)[C@H](CCCNC(=N)N)NC(=O)[C@H](CCC(N)=O)NC(=O)[C@@H](NC(=O)[C@H](C)NC(=O)[C@@H]1CSSC[C@H](NC(=O)[C@@H](N)CCCCNC(=O)COCCOCCNC(=O)COCCOCCNC(=O)CC[C@H](NC(=O)CCCCCCCCCCCCCCCCCCC(=O)O)C(=O)O)C(=O)N[C@@H](CC(N)=O)C(=O)N[C@@H]([C@@H](C)O)C(=O)N[C@@H](C)C(=O)N[C@@H]([C@@H](C)O)C(=O)N1)[C@@H](C)O)C(=O)N1CCC[C@H]1C(=O)N[C@@H](CO)C(=O)N[C@@H](CO)C(=O)N[C@H](C(=O)N[C@@H](CC(N)=O)C(=O)N[C@H](C(=O)NCC(=O)N[C@@H](CCCNC(=N)N)C(=O)N[C@@H](CC(N)=O)C(=O)N[C@H](C(=O)N[C@@H](Cc1ccc(O)cc1)C(N)=O)[C@@H](C)O)C(C)C)[C@@H](C)O, also called compound 95)		0.651 nM	21.5 nM
K([AEEA-AEEA-γGlu-C20 diacid])CNTATCATQRLANFLRHSSPNFGAIPSSTPVGSNTY-NH2 (disulfide 2-7; N-terminus assumed; SMILES CC[C@H](C)[C@H](NC(=O)[C@H](C)NC(=O)CNC(=O)[C@H](Cc1ccccc1)NC(=O)[C@H](CC(N)=O)NC(=O)[C@@H]1CCCN1C(=O)[C@H](CO)NC(=O)[C@H](CO)NC(=O)[C@H](Cc1c[nH]cn1)NC(=O)[C@H](CCCNC(=N)N)NC(=O)[C@H](CC(C)C)NC(=O)[C@H](Cc1ccccc1)NC(=O)[C@H](CC(N)=O)NC(=O)[C@H](C)NC(=O)[C@H](CC(C)C)NC(=O)[C@H](CCCNC(=N)N)NC(=O)[C@H](CCC(N)=O)NC(=O)[C@@H](NC(=O)[C@H](C)NC(=O)[C@@H]1CSSC[C@H](NC(=O)[C@@H](N)CCCCNC(=O)COCCOCCNC(=O)COCCOCCNC(=O)CC[C@H](NC(=O)CCCCCCCCCCCCCCCCCCC(=O)O)C(=O)O)C(=O)N[C@@H](CC(N)=O)C(=O)N[C@@H]([C@@H](C)O)C(=O)N[C@@H](C)C(=O)N[C@@H]([C@@H](C)O)C(=O)N1)[C@@H](C)O)C(=O)N1CCC[C@H]1C(=O)N[C@@H](CO)C(=O)N[C@@H](CO)C(=O)N[C@H](C(=O)N1CCC[C@H]1C(=O)N[C@H](C(=O)NCC(=O)N[C@@H](CO)C(=O)N[C@@H](CC(N)=O)C(=O)N[C@H](C(=O)N[C@@H](Cc1ccc(O)cc1)C(N)=O)[C@@H](C)O)C(C)C)[C@@H](C)O, also called compound 96)		0.181 nM	3.8 nM
K([AEEA-γGlu-C20 diacid])CNTATCATQRLAAFLRHSSPNFGAIPSSTPVGSNTY-NH2 (disulfide 2-7; N-terminus assumed; SMILES CC[C@H](C)[C@H](NC(=O)[C@H](C)NC(=O)CNC(=O)[C@H](Cc1ccccc1)NC(=O)[C@H](CC(N)=O)NC(=O)[C@@H]1CCCN1C(=O)[C@H](CO)NC(=O)[C@H](CO)NC(=O)[C@H](Cc1c[nH]cn1)NC(=O)[C@H](CCCNC(=N)N)NC(=O)[C@H](CC(C)C)NC(=O)[C@H](Cc1ccccc1)NC(=O)[C@H](C)NC(=O)[C@H](C)NC(=O)[C@H](CC(C)C)NC(=O)[C@H](CCCNC(=N)N)NC(=O)[C@H](CCC(N)=O)NC(=O)[C@@H](NC(=O)[C@H](C)NC(=O)[C@@H]1CSSC[C@H](NC(=O)[C@@H](N)CCCCNC(=O)COCCOCCNC(=O)CC[C@H](NC(=O)CCCCCCCCCCCCCCCCCCC(=O)O)C(=O)O)C(=O)N[C@@H](CC(N)=O)C(=O)N[C@@H]([C@@H](C)O)C(=O)N[C@@H](C)C(=O)N[C@@H]([C@@H](C)O)C(=O)N1)[C@@H](C)O)C(=O)N1CCC[C@H]1C(=O)N[C@@H](CO)C(=O)N[C@@H](CO)C(=O)N[C@H](C(=O)N1CCC[C@H]1C(=O)N[C@H](C(=O)NCC(=O)N[C@@H](CO)C(=O)N[C@@H](CC(N)=O)C(=O)N[C@H](C(=O)N[C@@H](Cc1ccc(O)cc1)C(N)=O)[C@@H](C)O)C(C)C)[C@@H](C)O, also called compound 72)		0.106 nM	4.76 nM
K([AEEA-γGlu-C20 diacid])CNTATCATQRLARFLRHSSPNFGAIPSSTPVGSNTY-NH2 (disulfide 2-7; N-terminus assumed; SMILES CC[C@H](C)[C@H](NC(=O)[C@H](C)NC(=O)CNC(=O)[C@H](Cc1ccccc1)NC(=O)[C@H](CC(N)=O)NC(=O)[C@@H]1CCCN1C(=O)[C@H](CO)NC(=O)[C@H](CO)NC(=O)[C@H](Cc1c[nH]cn1)NC(=O)[C@H](CCCNC(=N)N)NC(=O)[C@H](CC(C)C)NC(=O)[C@H](Cc1ccccc1)NC(=O)[C@H](CCCNC(=N)N)NC(=O)[C@H](C)NC(=O)[C@H](CC(C)C)NC(=O)[C@H](CCCNC(=N)N)NC(=O)[C@H](CCC(N)=O)NC(=O)[C@@H](NC(=O)[C@H](C)NC(=O)[C@@H]1CSSC[C@H](NC(=O)[C@@H](N)CCCCNC(=O)COCCOCCNC(=O)CC[C@H](NC(=O)CCCCCCCCCCCCCCCCCCC(=O)O)C(=O)O)C(=O)N[C@@H](CC(N)=O)C(=O)N[C@@H]([C@@H](C)O)C(=O)N[C@@H](C)C(=O)N[C@@H]([C@@H](C)O)C(=O)N1)[C@@H](C)O)C(=O)N1CCC[C@H]1C(=O)N[C@@H](CO)C(=O)N[C@@H](CO)C(=O)N[C@H](C(=O)N1CCC[C@H]1C(=O)N[C@H](C(=O)NCC(=O)N[C@@H](CO)C(=O)N[C@@H](CC(N)=O)C(=O)N[C@H](C(=O)N[C@@H](Cc1ccc(O)cc1)C(N)=O)[C@@H](C)O)C(C)C)[C@@H](C)O, also called compound 64)		0.378 nM	22.9 nM
K([AEEA-γGlu-C20 diacid])CNTATCATQRLARFLRHSSPNFGAIPSSTNVGSNTY-NH2 (disulfide 2-7; N-terminus assumed; SMILES CC[C@H](C)[C@H](NC(=O)[C@H](C)NC(=O)CNC(=O)[C@H](Cc1ccccc1)NC(=O)[C@H](CC(N)=O)NC(=O)[C@@H]1CCCN1C(=O)[C@H](CO)NC(=O)[C@H](CO)NC(=O)[C@H](Cc1c[nH]cn1)NC(=O)[C@H](CCCNC(=N)N)NC(=O)[C@H](CC(C)C)NC(=O)[C@H](Cc1ccccc1)NC(=O)[C@H](CCCNC(=N)N)NC(=O)[C@H](C)NC(=O)[C@H](CC(C)C)NC(=O)[C@H](CCCNC(=N)N)NC(=O)[C@H](CCC(N)=O)NC(=O)[C@@H](NC(=O)[C@H](C)NC(=O)[C@@H]1CSSC[C@H](NC(=O)[C@@H](N)CCCCNC(=O)COCCOCCNC(=O)CC[C@H](NC(=O)CCCCCCCCCCCCCCCCCCC(=O)O)C(=O)O)C(=O)N[C@@H](CC(N)=O)C(=O)N[C@@H]([C@@H](C)O)C(=O)N[C@@H](C)C(=O)N[C@@H]([C@@H](C)O)C(=O)N1)[C@@H](C)O)C(=O)N1CCC[C@H]1C(=O)N[C@@H](CO)C(=O)N[C@@H](CO)C(=O)N[C@H](C(=O)N[C@@H](CC(N)=O)C(=O)N[C@H](C(=O)NCC(=O)N[C@@H](CO)C(=O)N[C@@H](CC(N)=O)C(=O)N[C@H](C(=O)N[C@@H](Cc1ccc(O)cc1)C(N)=O)[C@@H](C)O)C(C)C)[C@@H](C)O, also called compound 82)	59.2	0.215 nM	12.7 nM

Source: patent US20140087995A1 (published 2014)
